Assay results reported in patent publication US7186539.

T1: Peptide substrate EIDL-MVLDWHDR
T1 chain: EIDLMVLDWHDR

T2: Synthetic peptide substrate GLTNIKTEEISEISY-EVEFRWKK
T2 chain: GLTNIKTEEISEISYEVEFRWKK

T3: Synthetic peptide substrate SEISY-EVEFRWKK
T3 chain: SEISYEVEFRWKK

B1: CHO-BACE, recombinant human BACE construct Asp2-2LΔTM-His6 expressed in CHO cells (protein)
chain: TQHGIRLPLRSGLGGAPLGLRLPRETDEEPEEPGRRGSFVEMVDNLRGKSGQGYYVEMTVGSPPQTLNILVDTGSSNFAVGAAPHPFLHRYYQRQLSSTYRDLRKGVYVPYTQGKWEGELGTDLVSIPHGPNVTVRANIAAITESDKFFINGSNWEGILGLAYAEIARPDDSLEPFFDSLVKQTHVPNLFSLQLCGAGFPLNQSEVLASVGGSMIIGGIDHSLYTGSLWYTPIRREWYYEVIIVRVEINGQDLKMDCKEYNYDKSIVDSGTTNLRLPKKVFEAAVKSIKAASSTEKFPDGFWLGEQLVCWQAGTTPWNIFPVISLYLMGEVTNQSFRITILPQQYLRPVEDVATSQDDCYKFAISQSSTGTVMGAVIMEGFYVVFDRARKRIGFAVSACHVHDEFRTAAVEGPFVTLDMEDCGYNIPQTDESHHHHHH
B2: pQE70-BACE (M)R36GSFVE...QTDES432RS(His)6 (protein)
chain: MRGSFVEMVDNLRGKSGQGYYVEMTVGSPPQTLNILVDTGSSNFAVGAAPHPFLHRYYQRQLSSTYRDLRKGVYVPYTQGKWEGELGTDLVSIPHGPNVTVRANIAAITESDKFFINGSNWEGILGLAYAEIARPDDSLEPFFDSLVKQTHVPNLFSLQLCGAGFPLNQSEVLASVGGSMIIGGIDHSLYTGSLWYTPIRREWYYEVIIVRVEINGQDLKMDCKEYNYDKSIVDSGTTNLRLPKKVFEAAVKSIKAASSTEKFPDGFWLGEQLVCWQAGTTPWNIFPVISLYLMGEVTNQSFRITILPQQYLRPVEDVATSQDDCYKFAISQSSTGTVMGAVIMEGFYVVFDRARKRIGFAVSACHVHDEFRTAAVEGPFVTLDMEDCGYNIPQTDESRSHHHHHH

Experiments:
[1] = molecular target: T1, Peptide substrate EIDL-MVLDWHDR
[2] = molecular target: T2, Synthetic peptide substrate …
[3] = molecular target: T3, Synthetic peptide substrate …

Row | Protein | Km [1] [µM] | Vmax (µmol min^-1mg^-1) [1] | kcat [1] [s⁻¹] | kcat/Km [1] [sec^-1µM^-1] | Km [2] [µM] | Vmax (µmol min^-1mg^-1) [2] | kcat [2] [s⁻¹] | kcat/Km [2] [sec^-1µM^-1] | Km [3] [µM] | Vmax (µmol min^-1mg^-1) [3] | kcat [3] [s⁻¹] | kcat/Km [3] [sec^-1µM^-1]
1 | B1 | 12 | 0.0196 | 0.0155 | 0.0013 | 4.9 | 0.435 | 0.345 | 0.0704 | 52 | 0.294 | 0.233 | 0.0045
2 | B2 |  |  |  |  | 5.4 | 0.4 | 0.317 | 0.0581 | 55.5 | 0.345 | 0.273 | 0.0049
